One molecule from patent CN116710484A (MYLINGENE INC, dated 2023) can be followed below.

For test [1], the target named is T1, mouse recombinant WARS1 protein (mouse, UniProt P32921 1-481, limits assumed).
T1 construct: Recombinant protein; also called 小鼠WARS1; 小鼠重组蛋白
T1 sequence (looked up): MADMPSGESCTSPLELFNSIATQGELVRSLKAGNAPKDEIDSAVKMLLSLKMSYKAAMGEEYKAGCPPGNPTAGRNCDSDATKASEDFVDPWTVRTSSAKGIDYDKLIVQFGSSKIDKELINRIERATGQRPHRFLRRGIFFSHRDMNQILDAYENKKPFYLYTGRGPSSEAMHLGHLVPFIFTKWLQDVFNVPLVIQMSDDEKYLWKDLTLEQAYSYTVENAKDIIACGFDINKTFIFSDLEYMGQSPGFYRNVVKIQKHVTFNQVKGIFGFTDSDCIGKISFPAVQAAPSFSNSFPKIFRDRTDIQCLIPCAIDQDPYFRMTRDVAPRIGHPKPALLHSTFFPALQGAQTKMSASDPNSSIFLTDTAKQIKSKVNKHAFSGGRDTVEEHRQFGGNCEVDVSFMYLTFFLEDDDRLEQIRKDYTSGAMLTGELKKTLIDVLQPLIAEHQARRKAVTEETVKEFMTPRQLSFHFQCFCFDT
Description: SPR, Biacore T200, CM5 chip. (Surface plasmon resonance follows binding to a sensor surface in real time, without labels.)

Test [2] deals with T2, human recombinant WARS1 protein (tryptophanyl-tRNA synthetase 1) (human, UniProt P23381 1-471, limits assumed).
T2 construct: Recombinant protein; also called 人WARS1; 人重组蛋白
T2 sequence (looked up): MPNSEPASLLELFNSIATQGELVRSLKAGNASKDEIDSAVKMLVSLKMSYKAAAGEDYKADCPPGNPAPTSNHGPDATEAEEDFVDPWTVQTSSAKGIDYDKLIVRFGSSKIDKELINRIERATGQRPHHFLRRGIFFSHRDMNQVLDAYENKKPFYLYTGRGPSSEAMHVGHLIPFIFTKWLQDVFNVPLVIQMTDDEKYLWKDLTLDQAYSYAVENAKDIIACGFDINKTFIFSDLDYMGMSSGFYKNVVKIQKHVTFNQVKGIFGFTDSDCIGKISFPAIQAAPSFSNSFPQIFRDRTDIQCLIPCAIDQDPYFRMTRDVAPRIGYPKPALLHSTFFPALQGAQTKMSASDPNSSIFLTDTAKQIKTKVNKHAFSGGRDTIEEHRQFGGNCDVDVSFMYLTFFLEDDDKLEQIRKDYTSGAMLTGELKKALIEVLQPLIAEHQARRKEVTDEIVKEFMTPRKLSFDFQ
The test can be described thus: SPR, Biacore T200, CM5 chip.

B1: GKB101 (antibody, V domains shown)
VH: EVQLLESGGGLVQPGGSLRLSCAASGFTFSSYDMSWVRQAPGKGLEWVSAISSGGSSIYYADSVKGRFTISRDNSKNTLYLQMNSLRAEDTAVYYCARDVAWDMLGDFDYWGQGTLVTVSS
VL: QSVLTQPPSASGTPGQRVTISCTGSSSNIGSNYVYWYQQLPGTAPKLLIYANSHRPSGVPDRFSGSKSGTSASLAISGLRSEDEADYYCGAWDDSLSAYVFGGGTKLTV
notes: also called WARS1特异性抗体; 抗WARS1抗体
In general, Kd refers to the concentration at which binding is half-saturated. Take B1: the Kd in test [1] is approximately 3.76 nM; in test [2], approximately 0.2 nM.
